Key:
[1] = target: T1, recombinant biotinylated human Fc gamma receptor I (FcγRI/CD64) (human, UniProt P12314 16-288, limits assumed, biotinylated); test: AlphaLISA competition: free antibody competes with human IgG Fc on acceptor beads for biotinylated human FcγRI on streptavidin donor beads
T1 construct: also called FcγR1

[2] = target: T2, recombinant biotinylated human Fc gamma receptor IIa (FcγRIIa/CD32a 167H) (human, UniProt P12318 36-218, limits assumed, biotinylated); test: AlphaLISA competition: free antibody competes with human IgG Fc on acceptor beads for biotinylated human FcγRIIa on streptavidin donor beads
T2 sequence (looked up): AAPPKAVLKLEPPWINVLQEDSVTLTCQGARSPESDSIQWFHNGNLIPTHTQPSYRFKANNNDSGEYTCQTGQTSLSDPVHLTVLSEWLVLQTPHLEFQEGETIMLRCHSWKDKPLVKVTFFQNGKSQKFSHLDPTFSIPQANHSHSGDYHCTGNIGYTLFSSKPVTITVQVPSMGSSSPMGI

T1 sequence (P12314 16-288 limits assumed): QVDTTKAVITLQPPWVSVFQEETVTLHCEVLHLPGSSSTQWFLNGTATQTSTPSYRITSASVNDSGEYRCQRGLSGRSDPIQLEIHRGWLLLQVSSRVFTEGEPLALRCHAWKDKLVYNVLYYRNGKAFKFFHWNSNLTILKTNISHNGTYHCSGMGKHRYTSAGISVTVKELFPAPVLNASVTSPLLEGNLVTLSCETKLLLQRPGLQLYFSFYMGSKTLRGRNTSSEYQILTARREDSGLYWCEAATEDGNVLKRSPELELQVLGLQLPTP

binding result [1]: binds
IC50 (read off the curve) [2]: ~400 nM
B1: Durvalumab (unmodified anti-PD-L1 antibody) (antibody, human IgG1, kappa)
heavy: EVQLVESGGGLVQPGGSLRLSCAASGFTFSRYWMSWVRQAPGKGLEWVANIKQDGSEKYYVDSVKGRFTISRDNAKNSLYLQMNSLRAEDTAVYYCAREGGWFGELAFDYWGQGTLVTVSSASTKGPSVFPLAPSSKSTSGGTAALGCLVKDYFPEPVTVSWNSGALTSGVHTFPAVLQSSGLYSLSSVVTVPSSSLGTQTYICNVNHKPSNTKVDKRVEPKSCDKTHTCPPCPAPEFEGGPSVFLFPPKPKDTLMISRTPEVTCVVVDVSHEDPEVKFNWYVDGVEVHNAKTKPREEQYNSTYRVVSVLTVLHQDWLNGKEYKCKVSNKALPASIEKTISKAKGQPREPQVYTLPPSREEMTKNQVSLTCLVKGFYPSDIAVEWESNGQPENNYKTTPPVLDSDGSFFLYSKLTVDKSRWQQGNVFSCSVMHEALHNHYTQKSLSLSPGK
light: EIVLTQSPGTLSLSPGERATLSCRASQRVSSSYLAWYQQKPGQAPRLLIYDASSRATGIPDRFSGSGSGTDFTLTISRLEPEDFAVYYCQQYGSLPWTFGQGTKVEIKRTVAAPSVFIFPPSDEQLKSGTASVVCLLNNFYPREAKVQWKVDNALQSGNSQESVTEQDSKDSTYSLSSTLTLSKADYEKHKVYACEVTHQGLSSPVTKSFNRGEC
notes: also called Imfinzi; MEDI-4736

— patent publication US20230181754A1 (BRIGHT PEAK THERAPEUTICS, published 2023)
